# Measurements: patent publication US20040258688A1
# Target: murine DEC-205 (mouse) (UniProt Q60767)
# Test: Alexa488-conjugated antibody (10 µg) injected s.c.; flow cytometry of CD11c+ cells
# UniProt Q60767, sequence (Q60767 28-1723 S1283P limits assumed): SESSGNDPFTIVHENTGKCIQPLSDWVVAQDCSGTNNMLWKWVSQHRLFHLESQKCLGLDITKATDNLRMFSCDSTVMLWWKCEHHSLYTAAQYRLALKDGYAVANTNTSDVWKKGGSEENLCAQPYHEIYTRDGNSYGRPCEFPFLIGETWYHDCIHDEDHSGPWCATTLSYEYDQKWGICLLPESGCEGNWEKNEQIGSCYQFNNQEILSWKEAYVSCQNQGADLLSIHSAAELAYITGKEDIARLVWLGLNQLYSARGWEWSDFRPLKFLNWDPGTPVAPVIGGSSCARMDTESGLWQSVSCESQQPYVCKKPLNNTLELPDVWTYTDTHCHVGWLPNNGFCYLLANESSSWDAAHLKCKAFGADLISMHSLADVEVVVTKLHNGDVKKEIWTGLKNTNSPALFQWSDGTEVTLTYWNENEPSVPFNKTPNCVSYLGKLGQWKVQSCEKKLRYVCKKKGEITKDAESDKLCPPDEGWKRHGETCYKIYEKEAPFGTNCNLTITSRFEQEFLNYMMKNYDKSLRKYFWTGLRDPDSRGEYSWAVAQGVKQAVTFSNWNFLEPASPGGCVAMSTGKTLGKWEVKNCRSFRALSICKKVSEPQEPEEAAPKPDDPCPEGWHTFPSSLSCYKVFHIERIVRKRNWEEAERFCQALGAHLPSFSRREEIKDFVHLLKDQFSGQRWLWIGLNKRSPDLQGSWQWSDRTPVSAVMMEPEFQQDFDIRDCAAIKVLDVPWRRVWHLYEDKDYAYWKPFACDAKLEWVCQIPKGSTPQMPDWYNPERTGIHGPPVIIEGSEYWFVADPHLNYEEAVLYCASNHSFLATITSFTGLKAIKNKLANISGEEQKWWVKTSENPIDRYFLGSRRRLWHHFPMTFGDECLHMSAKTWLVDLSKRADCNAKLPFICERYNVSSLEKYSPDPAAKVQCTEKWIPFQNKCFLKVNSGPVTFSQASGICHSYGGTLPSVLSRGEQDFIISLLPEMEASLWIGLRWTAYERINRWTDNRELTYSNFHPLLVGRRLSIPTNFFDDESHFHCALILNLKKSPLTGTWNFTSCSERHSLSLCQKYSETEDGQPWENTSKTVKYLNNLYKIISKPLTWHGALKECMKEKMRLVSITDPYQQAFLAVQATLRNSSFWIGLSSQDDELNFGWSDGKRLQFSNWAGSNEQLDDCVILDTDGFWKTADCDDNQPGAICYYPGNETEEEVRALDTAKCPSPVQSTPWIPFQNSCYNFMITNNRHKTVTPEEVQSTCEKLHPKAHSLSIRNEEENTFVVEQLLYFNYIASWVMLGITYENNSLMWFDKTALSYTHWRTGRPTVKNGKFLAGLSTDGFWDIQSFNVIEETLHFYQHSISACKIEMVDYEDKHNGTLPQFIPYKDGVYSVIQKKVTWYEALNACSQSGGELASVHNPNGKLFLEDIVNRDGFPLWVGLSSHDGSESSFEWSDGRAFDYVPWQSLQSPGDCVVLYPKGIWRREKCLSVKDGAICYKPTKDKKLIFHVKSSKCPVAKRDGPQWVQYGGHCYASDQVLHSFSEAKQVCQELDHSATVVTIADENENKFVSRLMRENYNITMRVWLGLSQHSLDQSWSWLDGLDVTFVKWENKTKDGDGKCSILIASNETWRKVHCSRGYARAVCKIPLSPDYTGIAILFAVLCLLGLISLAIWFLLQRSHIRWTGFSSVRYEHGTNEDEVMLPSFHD
substance,measurement,value
NLDC-145 monoclonal antibody to DEC-205,percent of distal lymph node DCs loaded with injected antibody at 6 hrs,40%
same,percent of draining lymph node DCs loaded with injected antibody at 6 hrs,> 50%
same,percent of spleen DCs loaded with injected antibody at 6 hrs,30%
